Here are results for five molecules from patent US8927280B2, “Compositions and methods for promoting the generation of definitive endoderm” (President and Fellows of Harvard College, priority 2009, dated 2015).

Test [1] deals with endoderm derived from Pdx1-GFP mouse ES cells. Description: Differentiation of induced endoderm into Pdx1+ pancreatic progenitors. The test is classed as cell-based. The procedure:
(§1) Mouse ES cells were routinely cultured on irradiated CF-1 MEF feeder cells in DMEM (Gibco) media supplemented with 15% Fetal Bovine Serum (HyClone FBS, Invitrogen), 2 mM L-glutamine (L-Glu, Gibco), 1.1 mM 2-mercaptoethanol (Gibco), 1 mM nonessential amino acids (Gibco), 1× penicillin/streptomycin (P/S, Gibco) and 5×10^5 units LIF (Chemicon). Cells were passaged at the ratio of 1:6-1:12 every 2-3 days using 0.25% trypsin. To generate the starting population, mouse ES cells was cultured on MEF feeder cells until they reached 80-90% confluence. Prior to differentiation, ES cells were passaged onto gelatin coated plates for 30 min to remove MEFs. MEF depleted ES cells were seeded at 2500 cells per cm^2 on gelatinized plates. After overnight culture, cells were exposed to 25 ng/ml Wnt3a (R&D Systems)+50 ng/ml recombinant Activin A (R&D Systems) or 500 ng/ml Nodal (R&D Systems) in DMEM (Gibco) supplemented with 1×L-Glu and 0.2% FBS (Gibco) for 1 day, then Activin A or Nodal in the same media and cultured for 4-6 days to induce endoderm differentiation. For the chemical inductions, compounds IDE1 and IDE2 (provided by Stuart L. Schreiber) were added at 5 μM concentration in the differentiation media. For pancreatic progenitors induction, the cells were transferred to 50 ng/ml FGF10 (R&D Systems), 0.75 μM KAAD-cyclopamine (Calbiochem) and 2 μM RA (Sigma) or Indolactam V 330 nM (Axxora) in DMEM supplemented with 1×L-Glu, 1×PS, 1×B27 (Invitrogen) for 4 days. SHB431542 was purchased from Sigma. All stock compounds were made with either DMSO or PBS
(§2) Cells were fixed in 4% paraformaldehyde (Sigma) in PBS for 20 min at 4° C. followed by a wash with PBS. Cells were blocked with 10% donkey serum (Jackson Immunoresearch) in PBS/0.1% Triton X and incubated with primary antibodies overnight at 4° C. Secondary antibodies were incubated for 1 h at room temperature. The following antibodies and dilutions were used: goat anti-SOX17, (1:500 R&D systems); rabbit anti-PDX1 (1:200, Chemicon), rabbit anti-FoxA2 (1:500; Upstate), rabbit anti-Dab2 (1:200, Santa Cruz), rabbit anti-SPARC (1:200, Santa Cruz,), mouse anti-AFP (1:100, Sigma), anti-Gata6 (1:50, Santa Cruz Biotech), goat anti-HNF6 (1:200, Santa Cruz Biotech), rabbit anti-RFP/DsRed (1:300, MBL), rabbit anti-GFP (1:200, Molecular Probes). Secondary antibodies were: rhodamine Red-X-conjugated donkey anti-goat antibody, 1:200 (JIRL), Alexa-488-conjugated goat anti-mouse and Alexa-594-conjugated goat anti-rabbit antibodies (1:300, Molecular Probes). Nuclei were visualized by Hoechst 33342 (1:1000, Molecular Probes). Images were taken using an Olympus IX70 Microscope. For quantification images were analyzed for the frequency of SOX17+, FoxA2+ or Pdx1+ cells using Metamorph image analysis software (Molecular Devices) and at least 6 images per well were collected. Data were confirmed in four independent experiments.
Pancreatic progenitors appear in the pancreatic bud at E9.5 and are marked by the expression of the transcription factor Pdx1. […] Using Pdx1-GFP knock-in (Micallef et al., 2005) mouse ES cells the inventors induced definitive endoderm using either of the hit compounds and cultured cells in various conditions for additional six days.

A further test has as its system mouse ES cells. Description: Sox17 endoderm induction in mouse ES cell monolayer cultures. The test is classed as cell-based. To be noted: for percent of total cells Sox17/dsRed double positive: Sox17-dsRed mouse ES cells, day 6, low serum. The procedure: as §1, §2
Endoderm formation was monitored by Sox17 expression by either flow cytometry detection of Sox17/DsRed or immunofluorescence using anti-Sox17 antibodies. Cells labeled by antibody staining were quantified using Metamorph software ad percentage of total cell number (based on Hoechst 33342 nuclei staining). All conditions were tested in either tri- or quadruplicates.

Another test deals with Smad2. The experiment in a line: Western blot analysis of Smad2 phosphorylation in ES cell lysates. It counts as cell-based, mouse. To be noted: for phosphorylation of Smad2 by IDE1 or IDE2 in the presence of the ALK4/5/7 inhibitor: mouse ES cells, co-treatment; for phosphorylation of Smad2 / activation of the TGF-β pathway: ES cell lysates, after 24 hrs or longer. The procedure:
Cells were lysed in 1×RIPA lysis buffer in the presence of protease inhibitor mixture (Roche)/1% phosphatase inhibitor mixture (Roche). Proteins were separated by 10% Tris-Glycine SDS/PAGE (Bio-rad) under denaturing conditions and transferred to a nitrocellulose membrane. After blocking with 5% skim milk in PBS/0.1% Triton X, the membrane was incubated with primary antibodies against phospho-Smad2 (1:1000, Cell Signaling) overnight at 4° C. The membrane was then washed, incubated with anti-mouse/rabbit peroxidase-conjugated affinity-purified secondary antibody (1:1000, Cell Signaling) at room temperature for 1 h, and developed by SuperSignal chemiluminescence (Pierce).
(In general: In western blotting, separated proteins are transferred to a membrane and probed.)

Test [2] concerns human ES cells (HUES 4 and 8). Description: Sox17 endoderm induction in human ES cells. It counts as cell-based. How it is done:
Human embryonic stem cell lines were cultured essentially as described {Cowan, 2004 #6}. Briefly, HUES4, HUES8 and HUES9 cells are routinely cultured on irradiated CF-1 MEF feeder cells in KnockOut DMEM (Gibco) supplemented with 10% KnockOut Serum Replacement (Gibco), 10% human plasma (Invitrogen), 2 mM L-glutamine (L-Glu, Gibco), 1.1 mM 2-mercaptoethanol (Gibco), 1 mM nonessential amino acids (Gibco), 1× penicillin/streptomycin (PS, Gibco) and 10 ng/ml bFGF (Invitrogen). Cells are split at the ratio of 1:10-1:12 every 4-5 days by using 1 mg/ml collagenase type IV. To induce endoderm formation, HUES cells was cultured on MEF feeder cells till 80-90% confluent, then treated with 100 ng/ml Activin A in advanced RPMI (Gibco) supplemented with 1×L-Glu and 0.2% FBS (Gibco), or with combination of 25 ng/ml Wnt3a (R&D systems)+100 ng/ml Activin A (R&D systems) or were exposed to compounds in the same media. At days 4 and 6 of culture cells were analysed for endodermal marker expression, Sox17.
as §2

Regarding `CC(C)[C@H]1C(=O)N[C@H](CO)Cc2c[nH]c3cccc(c23)N1C` [Indolactam V, (2S,5S)-1,2,4,5,6,8-Hexahydro-5-(hydroxymethyl)-1-methyl-2-(1-methylethyl)-3H-pyrrolo[4,3,2-gh]-1,4-benzodiazonin-3-one], the “increase of Pdx1+ cells above control treatment at day 12” value in test [1] (IDE1 or IDE2 followed by ILV) is 10 fold. Moreover, the “percent Pdx1-GFP expressing pancreatic progenitors at day 6” value in test [1] (IDE1 or IDE2 induced mouse endoderm, second step treatment) came out at 51±7.4%. In test [1] (applied to IDE1 or IDE2 derived endoderm), the “yield of pancreatic progenitors compared to a growth factor based approach” value is listed as “higher yields of pancreatic progenitors”. For the same molecule, the “percent of total cells Pdx1+ at day 12” value in test [1] (cultures treated initially with IDE1 or IDE2 and followed by ILV) is listed as 50%. For the same molecule, in test [1] (two-step treatment), the “increase in Pdx1+ cell number compared to known published protocols” value turned out to be 4 fold and the “percent of Pdx1+ cells also expressing other pancreatic progenitor markers, including HNF6” value was determined as 92±5%. The “increase in Pdx1+ cell number compared to the control DMSO treated” value in test [1] (two-step treatment, Pdx1 antibody staining) was 10 fold. Moreover, in test [1] (two-step treatment: IDE1 and/or IDE2, then Indolactam V), the “percent of cells positive with Pdx1 antibodies” value came to 53±6.4%.

Consider `NC(=O)c1ccc(-c2nc(-c3ccc4c(c3)OCO4)c(-c3ccccn3)[nH]2)cc1` [SB43125, reference compound], for which, in the test on mouse ES cells (mouse ES cells), the “induction of Sox17 protein under co-treatment of IDE1 or IDE2 with the ALK4/5/7 inhibitor” value is given as 5.6±1.3%. Further, the “phosphorylation of Smad2 by IDE1 or IDE2 in the presence of the ALK4/5/7 inhibitor” value with Smad2 is reported as “strongly attenuated”; in the test with Smad2 (listed as SB431542), “significantly attenuated”.

B1: Wnt3a: Wnt growth factor family member (protein, UniProt P56704 19-352, looked up)
Protein Wnt-3a: SYPIWWSLAVGPQYSSLGSQPILCASIPGLVPKQLRFCRNYVEIMPSVAEGIKIGIQECQHQFRGRRWNCTTVHDSLAIFGPVLDKATRESAFVHAIASAGVAFAVTRSCAEGTAAICGCSSRHQGSPGKGWKWGGCSEDIEFGGMVSREFADARENRPDARSAMNRHNNEAGRQAIASHMHLKCKCHGLSGSCEVKTCWWSQPDFRAIGDFLKDKYDSASEMVVEKHRESRGWVETLRPRYTYFKVPTERDLVYYEASPNFCEPNPETGSFGTRDRTCNVSSHGIDGCDLLCCGRGHNARAERRREKCRCVFHWCCYVSCQECTRVYDVHTCK
With B1, in the test on mouse ES cells (mouse ES cells, co-treatment), the “synergy / combined effect on Sox17 induction” value was “no significant effect”.

B2: Nodal: TGF-β family growth factor, protein inducer of endoderm (protein, UniProt Q96S42 238-347, looked up)
Nodal homolog: HHLPDRSQLCRKVKFQVDFNLIGWGSWIIYPKQYNAYRCEGECPNPVGEEFHPTNHAYIQSLLKRYQPHRVPSTCCAPVKTKPLSMLYVDNGRVLLDHHKDMIVEECGCL
As to B2, the “percent of total cells Sox17/dsRed double positive” value with mouse ES cells worked out at 45%. Also, in the test on mouse ES cells (mouse ES cells), the “percent of ES cells that form (definitive) endoderm, summary statement” value is recorded as “about 45%”. Also, the “phosphorylation of Smad2 / activation of the TGF-β pathway” value in the test on Smad2 is on record as “high level”.

B3: Activin A: recombinant TGF-β family growth factor, protein inducer of endoderm (protein, UniProt P08476 311-426, looked up)
Inhibin beta A chain: GLECDGKVNICCKKQFFVSFKDIGWNDWIIAPSGYHANYCEGECPSHIAGTSGSSLSFHSTVINHYRMRGHSPFANLKSCCVPTKLRPMSMLYYDDGQNIIKKDIQNMIVEECGCS
Turning to B3, the “percent of total cells Sox17/dsRed double positive” value with mouse ES cells is recorded as 45%. In addition, the “percent of ES cells that form (definitive) endoderm, summary statement” value with mouse ES cells (mouse ES cells) is on record as “about 45%”. Moreover, the “% of Sox17+ cells compared to IDE1 or IDE2 at all tested time points” value in the test on mouse ES cells (mouse ES cells, 14 days of treatment) is reported as “significant but lower % of Sox17+ cells”. Moreover, the “percentage of cells expressing Sox17 at day 2 of treatment” value in the test on mouse ES cells (mouse ES cells, day 2) was 13%. Also, the “percentage of cells expressing Sox17 at day 4 of treatment” value with mouse ES cells (mouse ES cells, day 4) is 28%. For the same molecule, the “phosphorylation of Smad2 / activation of the TGF-β pathway” value with Smad2 is “high level”. In addition, the “percent of cells expressing Pdx1 after FGF10, KAAD-cyclopamine and retinoic acid” value in test [1] (label = inducer of the starting endoderm, mouse ES cells) turned out to be 12.1±4%. Further, the “percent of cells expressing Sox17” value in test [2] (HUES cells, 4 days, IDE1 100 nM, IDE2 200 nM) worked out at 64±6.3%. In addition, in test [2] (human ESC cultures, 6 days), the “increase of Sox17 expression compared to the vehicle treatment” value was 4 fold and the “percent of total cells expressing Sox17 after 6 days” value is given as 55-65%.
